These results are taken from PMC3426363 (Pharmaceutical research, 2011).

What all share (format): in vitro ADME, human
The subject of one data set is UGT1A isoforms. The note with it: across the UGT1A isoforms used (Tab.S1).
Substrate in data set [1]: O=c1c(O)c(-c2ccc(O)cc2)oc2cc(O)cc(O)c12
As to the kind of experiment: UGT1A8 glucuronidation kinetics of flavonols. As to conditions: other: UGT1A8, pH 6.5.

Substrate in data set [2]: O=c1c(O)c(-c2ccccc2)oc2cc(O)cc(O)c12
As to the kind of experiment: UGT1A8 glucuronidation kinetics of flavonols. As to conditions: other: UGT1A8, pH 6.5.

Substrate in data set [3]: O=c1c(O)c(-c2ccccc2)oc2cc(O)ccc12
As to the kind of experiment: UGT1A8 glucuronidation kinetics of flavonols. As to conditions: other: UGT1A8, pH 6.5.

`COc1ccc2c(=O)cc(-c3ccc(O)cc3)oc2c1` [4’H7MF, 4'-hydroxy-7-methoxyflavone]: the glucuronidation rate in the data set with UGT1A isoforms was ≤ 0.9 nmol/mg/min.
Consider `COc1cc(O)c2c(=O)cc(-c3ccccc3)oc2c1` [5H7MF, 5-hydroxy-7-methoxyflavone], for which the glucuronidation rate in the data set on UGT1A isoforms was ≤ 0.9 nmol/mg/min.
Take `O=c1cc(-c2ccc(O)cc2)oc2cccc(O)c12` [5,4’DHF, 5,4'-dihydroxyflavone]: the glucuronidation rate with UGT1A isoforms is listed as ≤ 0.9 nmol/mg/min.
On the same count and under the same terms, then `COc1cccc2oc(-c3ccc(O)cc3)cc(=O)c12` [4’H5MF, 4'-hydroxy-5-methoxyflavone], with ≤ 0.9 nmol/mg/min; and `O=c1cc(-c2ccc(O)cc2)oc2ccccc12` [4’HF, 4'-hydroxyflavone], with ≤ 0.9 nmol/mg/min; and `O=c1cc(-c2ccccc2)oc2cccc(O)c12` [5HF, 5-hydroxyflavone], with ≤ 0.9 nmol/mg/min.
Same read-out and setting: then `COc1cc(O)c2c(=O)cc(-c3ccc(O)cc3)oc2c1` [5,4’DH7MF, 5,4'-dihydroxy-7-methoxyflavone], with ≤ 0.9 nmol/mg/min.
On the same count and under the same terms, to `COc1ccc2oc(-c3ccc(O)cc3)cc(=O)c2c1` [4’H6MF, 4'-hydroxy-6-methoxyflavone] belongs ≤ 0.9 nmol/mg/min.

B1: UGT1A8 (Homo sapiens) (protein)
chain: GKLLVVPMDGSHWFTMQSVVEKLILRGHEVVVVMPEVSWQLGKSLNCTVKTYSTSYTLEDLDREFMDFADAQWKAQVRSLFSLFLSSSNGFFNLFFSHCRSLFNDRKLVEYLKESSFDAVFLDPFDACGLIVAKYFSLPSVVFARGIACHYLEEGAQCPAPLSYVPRILLGFSDAMTFKERVRNHIMHLEEHLFCQYFSKNALEIASEILQTPVTAYDLYSHTSIWLLRTDFVLDYPKPVMPNMIFIGGINCHQGKPLPMEFEAYINASGEHGIVVFSLGSMVSEIPEKKAMAIADALGKIPQTVLWRYTGTRPSNLANNTILVKWLPQNDLLGHPMTRAFITHAGSHGVYESICNGVPMVMMPLFGDQMDNAKRMETKGAGVTLNVLEMTSEDLENALKAVINDKSYKENIMRLSSLHKDRPVEPLDLAVFWVEFVMRHKGAPHLRPAAHDLTWYQYHSLDVIGFLLAVVLTVAFITFKCCAYGYRKCLGKKGRVKKAHKSKTH
In the case of B1, the Michaelis-Menten constant (Km) is recorded as 2.39 ± 0.47 µM in data set [1] (formation of 3-O-glucuronide); 6.77 ± 1.78 µM in data set [1] (formation of 7-O-glucuronide); 6.44 ± 1.28 µM in data set [2] (formation of 3-O-glucuronide); 4.88 ± 1.14 µM in data set [2] (formation of 7-O-glucuronide); 8.68 ± 1.21 µM in data set [3] (formation of 3-O-glucuronide); 27.32 ± 7.50 µM in data set [3] (formation of 7-O-glucuronide). For the same molecule, the Vmax in data set [1] (formation of 3-O-glucuronide) was 0.74 ± 0.04 nmol/mg/min; in data set [1] (formation of 7-O-glucuronide), 1.01 ± 0.09 nmol/mg/min; in data set [2] (formation of 3-O-glucuronide) it was 3.89 ± 0.47 nmol/mg/min; in data set [2] (formation of 7-O-glucuronide), 0.79 ± 0.57 nmol/mg/min; in data set [3] (formation of 3-O-glucuronide) it was 0.76 ± 0.04 nmol/mg/min; in data set [3] (formation of 7-O-glucuronide), 0.65 ± 0.10 nmol/mg/min. Besides, the Vmax/Km in data set [1] (formation of 3-O-glucuronide) amounted to 310 µL/min/mg; in data set [1] (formation of 7-O-glucuronide), 150 µL/min/mg; in data set [2] (formation of 3-O-glucuronide), 600 µL/min/mg; in data set [2] (formation of 7-O-glucuronide), 160 µL/min/mg; in data set [3] (formation of 3-O-glucuronide) it was 90 µL/min/mg; in data set [3] (formation of 7-O-glucuronide) it was 20 µL/min/mg.
